The target of assay [1] is full length human APOBEC3G (human) (UniProt Q9HC16). As to the kind of experiment: atomic force microscopy (protein volume analysis); 80 nM A3G with 4 nM hybrid DNA; 50 mM HEPES pH 7.5, 100 mM NaCl, 5 mM MgCl2, 1 mM DTT, 37 °C 30 min; on APS-mica, tapping mode in air; stoichiometry of A3G on the DNA from volume.
The target is the same in assay [2]. Described as above. The source holds these as a separate data set.
The target is the same in assay [3]. Description: atomic force microscopy (protein volume analysis); 32 nM A3G with 4 nM hybrid DNA; 50 mM HEPES pH 7.5, 100 mM NaCl, 5 mM MgCl2, 1 mM DTT, 37 °C 30 min; on APS-mica, tapping mode in air; stoichiometry of A3G on the DNA from volume; fractions from areas under the Gaussians.
The target is the same in assay [4]. As to the kind of experiment: atomic force microscopy (protein volume analysis); 16 nM A3G with 4 nM hybrid DNA; 50 mM HEPES pH 7.5, 100 mM NaCl, 5 mM MgCl2, 1 mM DTT, 37 °C 30 min; on APS-mica, tapping mode in air; stoichiometry of A3G on the DNA from volume.

Where “and” joins values, the source holds several entries; their conditions need not be identical. Identical values can stand only once. Like-named read-outs stand apart in the source and are kept apart here.

For the substance “full length human APOBEC3G (from UniProt Q9HC16 1-384) (enzyme)”, in assay [1], the percent of A3G-DNA complexes with A3G trimers amounted to 82%, the percent of A3G-DNA complexes with higher order A3G oligomers came out at 18% and the stoichiometry N (usually a count of units in the complex or per binding partner) stood at 6. In assay [2], this substance had a percent of A3G-DNA complexes with A3G trimers of 88%, a percent of A3G-DNA complexes with higher order A3G oligomers of 12% and a stoichiometry N of 3. Further, in assay [3], the percent of A3G-DNA complexes with A3G dimers was determined as 78%; the percent of A3G-DNA complexes with A3G tetramers worked out at 22%; the stoichiometry N was 2 and 4. In addition, the stoichiometry N in assay [4] is 2 and 3.

The values are drawn from paper PMC6298963.
